Measured values as given in the supplement of paper PMC9170038.

System: MS2 coat protein
Test: apparent KD of MS2 coat protein; designed switch direction (-1 OFF switch, 1 ON switch): -1; higher = weaker reporter binding
Method in brief: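 On Illumina chips, designed RNA switches with common flanks were made by stalled E. coli RNA polymerase. Titrations with SNAP-549-labelled MS2 coat protein, doubling from 0.7 or 1.5 nM to 3 µM, were done with no input, with 200 uM small-molecule ligand, or with an oligonucleotide input. Apparent KD is the median per design over clusters, from curve fits of normalised cluster fluorescence.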

[1] = Eterna round: R95, input ligand: microRNA oligo, concentration not stated
[2] = input ligand: microRNA oligo, concentration not stated

Sequence | apparent KD of MS2 coat protein [1] [µM] | apparent KD of MS2 coat protein (input ligand: FMN 200 uM) [µM] | apparent KD of MS2 coat protein [2] [µM] | apparent KD of MS2 coat protein (input ligand: none) [µM] | apparent KD of MS2 coat protein (Eterna round: R95, input ligand: FMN 200 uM) [µM] | apparent KD of MS2 coat protein (Eterna round: R95, input ligand: none) [µM]
CCUGCACAUGAGGAUCACCCAUGUCAGGAUAUCUCGCCGUGUGGAGCAACACGGUAUAAGAGAAGGGACACGGG [Gegexeusre] (puzzle: Exclusion 1) | 0.0228 |  |  |  |  | 
CCUGCGGACAAAGGAUAUUGCGGUGGCCGGCUCGGCGUACCGAGCCUACAUGAGGAUCACCCAUGUAAGAAGGUUGUCGUUGGA [Mat - Exclusion NG 2 - Mod of JL - D71] (Eterna round: R96, puzzle: Exclusion NG 2) |  | 0.228 | 0.027 | 0.0401 |  | 
CCUGGGUCAUCGCCCAGGAACAACAUGAGGAUCACCCAUGUCUAGGAUAUCCACCAGUCAAUAAAGGAGAAGGAGACGGUGGUU [Enusonor] (Eterna round: R96, puzzle: Exclusion NG 3) |  | 0.0229 | 0.0146 | 0.0212 |  | 
CCUUACCGAGGAUAUACAUGAGGAUCACCCAUGUGAUCCUAAGGCUGAUCAAGCCUAUGUAGAAGGCGCAAAUC [salish99_ex3_r4_004] (Eterna round: R97, puzzle: Exclusion 3) |  | 0.16 |  | 0.13 |  | 
CCUUCCCGAGGAUAUACAUGAGGAUCACCCAUGUGAUCCUAAGGCUGAUCAAGCCUAUGUAGAAGGCGCAAAUC [salish99_ex3_r4_006] (Eterna round: R97, puzzle: Exclusion 3) |  | 0.0351 |  | 0.0384 |  | 
CCUUGUGUUGAGGAUAUGCGCCGGCUCGCUGGCGCAGAAGGCGGCACAUGAGGAUCACCCAUGUCAGUUCGCGA [salish99_ex6_r004_012] (Eterna round: R97, puzzle: Exclusion 6) |  | 0.336 |  | 0.0292 |  | 
CGAUAAAAGACAGGAUAUGAGGAGAGAGAGAGAUCAGAAGGGUCACAUGAGGAUCACCCAUGUGAGUUCUCGAAAUUAAAUAUU [Prohibition 50 - Jieux - Exclusion NG 1] (Eterna round: R96, puzzle: Exclusion NG 1) |  | 0.0188 | 0.0142 | 0.0188 |  | 
CGAUAAAAGACAGGAUAUGAGGAGAGAGAGAGAUCAGAAGGGUCACAUGAGGAUCACCCAUGUGAGUUCUCGAUAAGAAACACC [Prohibition 53 - Jieux - Exclusion NG 1] (Eterna round: R96, puzzle: Exclusion NG 1) |  | 0.0138 | 0.0145 | 0.0193 |  | 
CGAUGCUCGAGUCGACAUGAGGAUCACCCAUGUACAGUUAGUGAGGAUAUCGGAGACACAUAGUAUGAGAAGGCGCGAACGUGA [Ex NG3 #16] (Eterna round: R96, puzzle: Exclusion NG 3) |  | 0.0767 | 0.0414 | 0.0403 |  | 
CGCCCUCCGGUGAGGAUAUUGCCCACCAUGGUCGGCAAGAAGGCACUUGAGGAUCACCCAAGUAAAACAAAUAA [Beraus] (Eterna round: R97, puzzle: Brourd's mod of Exclusion 4) |  | 0.45 |  | 0.0348 |  | 
CGCCUGUAAGGAUAUUAGUAGUAGUCAGAAUAGACUAUUACUGAGAAGGUACAUGAGGAUCACCCAUGUUGGCG [Eli x4 4.10] (Eterna round: R97, puzzle: Exclusion 4) |  | 0.0197 |  | 0.0185 |  | 
CGCCUGUGAGGAUAUUAGUAGUAGUCAGAAAAGACUAUUACUGAGAAGGUACAUGAGGAUCACCCAUGUUGGCG [Mat - Exclusion 4 - Eli Mod - D41] (Eterna round: R97, puzzle: Exclusion 4) |  | 0.0149 |  | 0.02 |  | 
CGCUAGUCAGGAUAUACGAACAUGUCAAAAGACGUGAAGGGACAUGAGGAUCACCCAUGUAGAAGGGACUAGCA [salish99_ex2_r3_014] (Eterna round: R96, puzzle: Exclusion 2) |  | 0.165 | 0.0222 | 0.0315 |  | 
CGCUAGUCAGGAUAUACGAACAUGUCAAAAGACGUGAAGGGACAUGAGGAUCACCCAUGUAGAAGGGACUAGCA [salish99_ex2_r3_014] (puzzle: Exclusion 2) | 0.0225 |  |  |  | 0.147 | 0.0249
CGCUGGACAGGAUAUGUUCUUGGGCACUUGAGGAUCACCCAAGUCAUCAAGACAACAGGCACAGAAGGGUUUAUGG [salish99_ex5_r4_023] (Eterna round: R97, puzzle: Exclusion 5) |  | 0.0206 |  | 0.0184 |  | 
CGCUGGACAGGAUAUGUUCUUGGGCACUUGAGGAUCACCCAAGUCAUCGGGACAUCAGGCACAGAAGGGUUUUUGG [salish99_ex5_r4_027] (Eterna round: R97, puzzle: Exclusion 5) |  | 0.018 |  | 0.0205 |  | 
